# From publication PMC5975648
# B1: Psd1: Psd1(N34Q)-EGFP (protein)
# parent chain: MSIMPVKNALAQGRTLLMGRMPAVKFSTRMQLRNRTAVLWNRKFSTRLFVQQRRSSGEIVDRAKAAAANSGRKQVSMKWVVLTSFTIVLGTILLVSRNDSTEEDATEGKKGRRTRKIKIFNNNWLFFCYSTLPLNAMSRLWGQVNSLTLPIWVRPWGYRLYSFLFGVNLDEMEDPDLTHYANLSEFFYRNIKPGTRPVAQGEDVIASPSDGKILQVGIINSETGEIEQVKGMTYSIKEFLGTHSHPLMSKSASSLDLTSDEEKHREFARVNRIQLAGSEDTEQPLLNFKNEGDQSVREFKPSVSKNIHLLSQLSLNYFSNGFSCSEPHDTELFFAVIYLAPGDYHHFHSPVDWVCKVRRHFPGDLFSVAPYFQRNFPNLFVLNERVALLGSWKYGFFSMTPVGATNVGSIKLNFDQEFVTNSKSDKHLEPHTCYQAVYENASKILGGMPLVKGEEMGGFELGSTVVLCFEAPTEFKFDVRVGDKVKMGQKLGIIGKNDLK
# Experiment: confocal fluorescence microscopy, ER and mitochondria markers
# Settings: glycan lost; control: Psd1-EGFP
protein,measurement,value
B1,localisation_or_trafficking,no change
